B1: antibody 9-15 (antibody, V domains shown)
VH: QVQLVQSGAEVKKPGSSVKVSCKASGGTFSSYAISWVRQAPGQGLEWMGGIIPIFGTANYAQKFQGRVTITAEESTSTAYMELSSLRSEDTAVYYCARDGWAAAGPDTSLLGTFDIWGQGTMVTVSS
VL: QSALTQPPSVSGSPGQSVTISCTGTSSDVGSYNRVSWYQQPPGTAPKLIIYEVSNRPSGVPDRFSGSKSGNTASLTISGLQAEDEADYYCSSYTSSSTYVVFGGGTKLTVL
B2: antibody 9-17 (antibody, V domains shown)
VH: QVQLVQSGAEVKKPGSSVKVSCKASGGTFSNYVISWVRQAPGQGLEWMGGIIPIFGTAKYAQKFQGRVAITADESTSTAYMEVSSLRSEDTAVYYCARAGYCSGGSCRRPSDYYGMDVWGQGTTVTVSS
VL: not shown
B3: antibody 9-24 (antibody, V domains shown)
VH: EVQLVESGGGLVQPGGSLRLSCAASGFTFSDSAVHWVRQASGKGLEWVGRIRNRNNNYATAYAASVKGRFTISRDDSENMAYLQMNGLKTEDTAIYYCTDLLAYWGQGTLLTVSS
VL: SYELTQPPSVSVSPGQTARITCSADALPKQYAYWYQQKAGQAPVLVIYKDNERPSGIPERFSGSSSGTTVTLTISGVQAEDEADYYCQSADSSGGYRVFGGGTKLTVL
B4: antibody 9-11 (antibody, V domains shown)
VH: QVQLVQSGAEVKKPGASVKVSCKASGYTFTSYAISWVRQAPGQGLEWMGWISAYTGNTNYAQKLQGRVTMTTDTSTSTAYMELRSLRSDDTAVYYCARNGWDYDTSGTHDYWGQGTLVTVSS
VL: not shown

Target: SARS-CoV-2 nucleocapsid phosphoprotein (SARS-CoV-2, UniProt P0DTC9 1-419)
Assay: SPR

Binder | Kd
B1 | 0.1 nM
B2 | 0.18 nM
B3 | 2.36 nM
B4 | 0.08 nM
